Numbering of substitutions follows the chain as printed. Numbers in names are those of the source.
T1: EsCas13d, nuclease-dead (Eubacterium siraeum, UniProt B0MS50, R295A;H300A;R849A;H854A)
T1 sequence: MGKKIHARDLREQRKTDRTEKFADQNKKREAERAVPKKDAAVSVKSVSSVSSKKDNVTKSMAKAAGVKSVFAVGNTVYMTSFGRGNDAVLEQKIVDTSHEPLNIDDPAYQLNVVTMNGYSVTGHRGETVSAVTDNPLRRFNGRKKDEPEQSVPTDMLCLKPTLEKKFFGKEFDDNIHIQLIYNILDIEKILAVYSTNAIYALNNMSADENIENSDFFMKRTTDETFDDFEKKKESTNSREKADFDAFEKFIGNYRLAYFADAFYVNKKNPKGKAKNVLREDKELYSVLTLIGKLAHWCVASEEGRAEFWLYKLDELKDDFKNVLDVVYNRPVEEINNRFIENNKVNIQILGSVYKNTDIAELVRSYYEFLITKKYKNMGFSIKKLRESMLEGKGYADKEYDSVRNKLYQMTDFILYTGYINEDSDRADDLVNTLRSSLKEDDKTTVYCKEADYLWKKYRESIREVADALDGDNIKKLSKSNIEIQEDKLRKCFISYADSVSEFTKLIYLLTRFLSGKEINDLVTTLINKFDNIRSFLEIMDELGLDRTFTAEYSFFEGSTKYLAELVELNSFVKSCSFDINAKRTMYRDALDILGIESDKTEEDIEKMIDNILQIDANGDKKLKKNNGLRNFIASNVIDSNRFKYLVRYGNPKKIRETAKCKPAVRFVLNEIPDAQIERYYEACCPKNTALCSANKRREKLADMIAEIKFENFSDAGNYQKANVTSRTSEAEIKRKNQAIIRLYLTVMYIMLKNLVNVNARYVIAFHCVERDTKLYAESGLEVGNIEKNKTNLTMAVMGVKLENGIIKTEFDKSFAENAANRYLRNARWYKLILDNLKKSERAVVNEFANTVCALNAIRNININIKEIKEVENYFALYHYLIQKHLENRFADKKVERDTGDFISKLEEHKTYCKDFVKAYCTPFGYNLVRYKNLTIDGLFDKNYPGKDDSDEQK

B1: target 1 insU 3' of 18,insG 3' of 1 (mixed)
RNA 1: CACCCGUGCAAAAAUGCAGGGGUCUAAAACUGAGCGGAUAACCUCUCUAUGG
RNA 2: GGGAAUGGAUCCACAUCUACGAAUUCGUACCAUAUGAGAGGUUAUCCGCUCAGCCGAGAUCGGAAGAGCACACGU
B2: target 1 insU 3' of 15,insC 3' of 13 (mixed)
RNA 1: B1 RNA 1
RNA 2: GGGAAUGGAUCCACAUCUACGAAUUCGUACCAUAGAGUAGCGUUAUCCGCUCACCGAGAUCGGAAGAGCACACGU
B3: target 1 insA 3' of 21,insU 3' of 20 (mixed)
RNA 1: B1 RNA 1
RNA 2: B2 RNA 2 with U33A, A34U, G35U, U38A, A39G, G40A, C41G
B4: target 1 C7G,A9U (mixed)
RNA 1: B1 RNA 1
RNA 2: GGGAAUGGAUCCACAUCUACGAAUUCGUACCAUAGAGAGGUUUUGCGCUCACCGAGAUCGGAAGAGCACACGU
B5: target 1 insA 3' of 17,insU 3' of 4 (mixed)
RNA 1: B1 RNA 1
RNA 2: B1 RNA 2 with U35G, G36A, C51U, A52C, G53A
B6: target 1 insA 3' of 4,insU 3' of 1 (mixed)
RNA 1: B1 RNA 1
RNA 2: GGGAAUGGAUCCACAUCUACGAAUUCGUACCAUAGAGAGGUUAUCCGCAUCAUCCGAGAUCGGAAGAGCACACGU
B7: target 1 U8C,G17C (mixed)
RNA 1: B1 RNA 1
RNA 2: B4 RNA 2 with G35C, U43A, U44C, G45C
B8: target 1 insC 3' of 8,insA 3' of 6 (mixed)
RNA 1: B1 RNA 1
RNA 2: B6 RNA 2 with G47C, C48A, A49G, U50C, C51U, A52C, U53A
B9: target 1 insA 3' of 22,insA 3' of 2 (mixed)
RNA 1: B1 RNA 1
RNA 2: B1 RNA 2 with C31A, A32C, U33A, A34U, U35A, G53A
B10: target 1 C7U,G12C (mixed)
RNA 1: B1 RNA 1
RNA 2: B4 RNA 2 with G40C, U43A, G45U
B11: target 1 C6G,G12C (mixed)
RNA 1: B1 RNA 1
RNA 2: B4 RNA 2 with G40C, U43A, G45C, C46G
B12: target 1 insA 3' of 15,insA 3' of 2 (mixed)
RNA 1: B1 RNA 1
RNA 2: B1 RNA 2 with U35G, G36A, A37G, G38A, G53A
B13: target 1 insG 3' of 6,insA 3' of 6 (mixed)
RNA 1: B1 RNA 1
RNA 2: B6 RNA 2 with C48A, A49G, U50C, C51U, A52C, U53A
B14: target 1 insA 3' of 21,insA 3' of 3 (mixed)
RNA 1: B1 RNA 1
RNA 2: B1 RNA 2 with U33A, A34U, U35A, C51A, A52C, G53A
B15: target 1 C7G,G17U (mixed)
RNA 1: B1 RNA 1
RNA 2: B4 RNA 2 with G35U, U43A
B16: target 1 insU 3' of 18,insC 3' of 1 (mixed)
RNA 1: B1 RNA 1
RNA 2: B1 RNA 2 with G53C
B17: target 1 insG 3' of 22,insC 3' of 18 (mixed)
RNA 1: B1 RNA 1
RNA 2: GGGAAUGGAUCCACAUCUACGAAUUCGUACGCAUACGAGAGGUUAUCCGCUCACCGAGAUCGGAAGAGCACACGU
B18: target 1 C7G,G15A (mixed)
RNA 1: B1 RNA 1
RNA 2: B4 RNA 2 with G37A, U43A
B19: target 1 del7,del9 (mixed)
RNA 1: B1 RNA 1
RNA 2: GGGAAUGGAUCCACAUCUACGAAUUCGUACCAUAGAGAGGUUUCGCUCACCGAGAUCGGAAGAGCACACGU
B20: target 1 C6G,A16G (mixed)
RNA 1: B1 RNA 1
RNA 2: B4 RNA 2 with A36G, U43A, G45C, C46G
B21: target 1 insA 3' of 15,insG 3' of 1 (mixed)
RNA 1: B1 RNA 1
RNA 2: B1 RNA 2 with U35G, G36A, A37G, G38A
B22: target 1 insC 3' of 15,insG 3' of 9 (mixed)
RNA 1: B1 RNA 1
RNA 2: B2 RNA 2 with U38C, C41G, G42U, U44A, A45G
B23: target 1 C6A,G12A (mixed)
RNA 1: B1 RNA 1
RNA 2: B4 RNA 2 with G40A, U43A, G45C, C46A
B24: target 1 insC 3' of 13,insG 3' of 10 (mixed)
RNA 1: B1 RNA 1
RNA 2: B2 RNA 2 with U38A, A39G, G40C, C41G, G42U, U44G
B25: target 1 insA 3' of 15,insC 3' of 1 (mixed)
RNA 1: B1 RNA 1
RNA 2: B1 RNA 2 with U35G, G36A, A37G, G38A, G53C
B26: target 1 U10G,G12A (mixed)
RNA 1: B1 RNA 1
RNA 2: B4 RNA 2 with G40A, U42G, U43A, G45C
B27: target 1 U3G,C21A (mixed)
RNA 1: B1 RNA 1
RNA 2: B4 RNA 2 with C31A, U43A, G45C, U49G
B28: target 1 insC 3' of 14,insU 3' of 4 (mixed)
RNA 1: B1 RNA 1
RNA 2: B1 RNA 2 with U35G, G36A, A37G, G38A, A39C, C51U, A52C, G53A
B29: target 1 insU 3' of 21 (mixed)
RNA 1: B1 RNA 1
RNA 2: GGGAAUGGAUCCACAUCUACGAAUUCGUACCUAUAGAGAGGUUAUCCGCUCACCGAGAUCGGAAGAGCACACGU
B30: target 1 C2G,C4U (mixed)
RNA 1: B1 RNA 1
RNA 2: B4 RNA 2 with U43A, G45C, C48U, C50G
B31: target 1 complement block 6-10 (mixed)
RNA 1: B1 RNA 1
RNA 2: B4 RNA 2 with U42A, U44A, C46G
B32: target 1 A9U,G15U (mixed)
RNA 1: B1 RNA 1
RNA 2: B4 RNA 2 with G37U, G45C
B33: target 1 insU 3' of 18,insA 3' of 2 (mixed)
RNA 1: B1 RNA 1
RNA 2: B1 RNA 2 with G53A
B34: target 1 A14G,A16C (mixed)
RNA 1: B1 RNA 1
RNA 2: B4 RNA 2 with A36C, A38G, U43A, G45C

Molecular target: T1, EsCas13d, nuclease-dead
Experiment: crRNA (strand 1, pre-loaded); Mg2+; 40 mM Tris-HCl pH 7.5, 150 mM NaCl, 6 mM MgCl2, 1 mM DTT, 0.1% Tween-20, 0.2 mg/ml BSA; 25 C; 10 min per concentration, then washed
Settings: tags: His6-TwinStrep-SUMO cleaved; N-terminal SNAP kept (SNAP-Surface 488); label: 3' end held by stalled T7 RNA polymerase

Binder | Kd [nM]
B1 | 27.4 ± 1.3
B2 | 19.3 ± 2.7
B3 | 19.7 ± 1.9
B4 | 7.61 ± 0.27
B5 | 44 ± 5
B6 | 7 ± 0.6
B7 | 90 ± 32
B8 | 17.7 ± 0.9
B9 | 12.7 ± 0.5
B10 | 9.7 ± 0.7
B11 | 15.1 ± 0.7
B12 | 6.4 ± 0.4
B13 | 10.6 ± 1.1
B14 | 12.2 ± 0.6
B15 | 35 ± 5
B16 | 23.5 ± 2
B17 | 73 ± 23

Binder | Kd [nM]
B18 | 22.5 ± 1.6
B19 | 12.3 ± 0.9
B20 | 31.8 ± 1.6
B21 | 5.96 ± 0.32
B22 | 20.8 ± 1
B23 | 7.07 ± 0.35
B24 | 15.8 ± 1.7
B25 | 7.1 ± 0.8
B26 | 32.9 ± 2.7
B27 | 41 ± 14
B28 | 43 ± 4
B29 | 24 ± 1.6
B30 | 54 ± 16
B31 | 10.1 ± 0.6
B32 | 46 ± 11
B33 | 33.5 ± 2.6
B34 | 67 ± 11

Source: publication PMC10786891, “Massively parallel profiling of RNA-targeting CRISPR-Cas13d”
